B1: TPR t1 (parent)
chain: GACCAAUCUGCCCUCAGAGCUCGAGAACAUCUUCGGAUGCAGAGGAGGCAGGCUUCGGUGGCGCGAUAGCGCCAACGUCCUCAACCUCCAAUGCAUCCCACCACAUGAUGAUGCCUGAAGAGCCUUGGUUUUUUG

Variants of: B1
Assay: polymerase ribozyme fitness, log enrichment relative to wild type (log ratio); higher = more active; in vitro selection for triplet polymerase activity
Procedure, shortened: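 A single round of triplicate in vitro selection, including frozen incubation at −7 °C, was applied to PCR-built, transcribed mutant libraries of each subunit of a heterodimeric triplet polymerase ribozyme. Illumina sequencing of input and output libraries retained genotypes with ≥10 input reads and ≥1 read per output. Fitness is the base-2 logarithm of genotype enrichment divided by wild-type enrichment, from inverse-variance-weighted replicate averages.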

Variant	polymerase ribozyme fitness (log ratio)
C49A G69C A83C A84U	-4.35
G48C U87A	-1.01
C49A G69C	-1.8
C49G G57U G63A A119G U133G	-0.878
C49G C124G	1.58
G48U C72A G113C	-2.2
G48U G57A C101U C124G	0.412
G48U C104U	-0.515
G48C U59C A83C C114A	-2.11
C49G G61A	-0.914
G48U U54G U129A	-1.88
G48U C72A C97G	-5.25
G48U C56U	-0.606
G48U C56A	-1.75
C49G C56A C94U A111G	-1.5
G48U U81G A91G G117U A119U	-7.47
G48U G71C	-1.77
G48C C101A G117A	-2.54
G48U G57U C76G U78A G117A	-2.42
C49G G52A C82G A84G A121U	0.784
G48U C82G U92G	-4.41

Variant	polymerase ribozyme fitness (log ratio)
G48C G77U C89U C123U	-0.348
C49A C62G C76U	-5.79
G48U C114G G117C G120C	-6.82
C49G C56A	-2.63
C49A U112A	1.49
C49A G63A	-0.725
C49A C72U	-1.37
C49A C72A	0.275
C49A G93U U125A U131G	-2.24
G48U G52U C73U A90U C124G	-1.99
C49A U81A A90U C123U	-1.24
C49G G60C A119U U133A	-2.93
C49G C101A	-1.3
C49A A83C A84U	-0.775
G48U A74U	-0.741
C49A C85A	-1.43
G48U C49A C89G	-3.48
C49A A121U	1.97
C49G C76U U87C	-1.3
G48U G57A C62U U78C C114A U133G	-3.01
C49A C82A G110A	-1.04

Variant	polymerase ribozyme fitness (log ratio)
G48U G61U G93U U112A C124A	-0.694
G48U A84G U116C	-1.79
C49G C56G U87A G117A	-4.51
C49A G51U C56A	-2.24
G48U C53U U92C A100U C101U C124A U131G	-2.57
G48U G69A U87A	-6.61
C49G C64A G77U A83U G120U	-6.63
C49A C56U	0.0901
C49A C70G U130C	-3.2
G48U C72U C76U A105U	-3.61
C49G A50U C72A C94A	-2.42
C49A U81C	-2.67
G48U G61U G113A	-1.24
C49G C115G G135U	-3.4
C49A C56U G120C U131G	1.43
G48U U55G G69C G93U	-2.93
G48U U87G U133G	-0.334
C49A U78C	-0.24
G48U C102U	-3.66
G48U C56G C72U C86G	-2.89
G48U G52U G63C	-2.05

Variant	polymerase ribozyme fitness (log ratio)
G48C G60A G93A	-0.836
C49A G57U G60U G113A	-1.65
C49G C53A G57A C85A C88A C115G	-3.29
C49A C82U G93C C99U G122U	-3.82
G48C C94G C115U	-3.03
G48U G120C	-0.358
G48U C49U G60C A84U U129A U134G	-1.92
G48U C49U A91C	-2.49
G48U G61U C88U G110A	-1.73
G48C G61C C123G	-0.406
G48C G93A C99A G113C	-7.38
C49A G71U G120U	0.255
G48U G93C A121G	0.759
G48C G110A	-1.41
C49G G61U C88A	-1.08
C49A G61U U81C G128U	-4.52
G48U C70G	-4.24
G48U C70U	-1.39
G48U C70A	-2.08
G48C G52U G60A U109A G110U	-6.29
C49G C85G	-2.67
